Experimental data from patent US20030162943A1 (Takeda / Millennium, published 2003).

T1: human D6 (human, UniProt O00590 1-384)
T1 construct: Full-length human D6 expressed in CHO, Hos.CD4, HEK 293, K293 or L1.2 cells; Endogenous on THP-1 cells; also called human D6 receptor; wild type human D6
T1 sequence: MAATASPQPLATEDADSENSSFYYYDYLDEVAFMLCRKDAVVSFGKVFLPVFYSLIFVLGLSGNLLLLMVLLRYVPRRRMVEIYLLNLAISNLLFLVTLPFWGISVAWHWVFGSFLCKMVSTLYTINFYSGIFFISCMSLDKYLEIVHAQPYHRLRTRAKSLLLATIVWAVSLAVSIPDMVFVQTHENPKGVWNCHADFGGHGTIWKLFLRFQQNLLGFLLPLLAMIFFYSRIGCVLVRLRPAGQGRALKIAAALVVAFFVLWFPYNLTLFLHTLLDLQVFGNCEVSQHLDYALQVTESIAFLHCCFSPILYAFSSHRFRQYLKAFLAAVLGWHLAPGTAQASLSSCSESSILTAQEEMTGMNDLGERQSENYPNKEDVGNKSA

T2: murine D6 (murine, UniProt O08707 1-378)
T2 construct: Endogenous on B-end cells in the polyclonal antibody staining; also called murine D6 receptor; mouse D6
T2 sequence: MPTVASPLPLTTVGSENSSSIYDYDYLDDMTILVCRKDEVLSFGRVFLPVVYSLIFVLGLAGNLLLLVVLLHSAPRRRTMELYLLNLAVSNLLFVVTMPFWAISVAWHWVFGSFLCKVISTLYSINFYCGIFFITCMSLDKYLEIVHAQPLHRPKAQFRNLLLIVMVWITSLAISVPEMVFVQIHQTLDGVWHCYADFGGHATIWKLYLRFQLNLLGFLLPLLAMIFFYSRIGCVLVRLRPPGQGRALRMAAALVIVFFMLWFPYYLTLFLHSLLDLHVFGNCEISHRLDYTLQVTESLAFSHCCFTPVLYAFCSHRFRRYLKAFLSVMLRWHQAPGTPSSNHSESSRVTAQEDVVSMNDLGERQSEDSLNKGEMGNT

T3: human CCR5 (human, UniProt P51681 1-352 at identity 1.00))
T3 chain: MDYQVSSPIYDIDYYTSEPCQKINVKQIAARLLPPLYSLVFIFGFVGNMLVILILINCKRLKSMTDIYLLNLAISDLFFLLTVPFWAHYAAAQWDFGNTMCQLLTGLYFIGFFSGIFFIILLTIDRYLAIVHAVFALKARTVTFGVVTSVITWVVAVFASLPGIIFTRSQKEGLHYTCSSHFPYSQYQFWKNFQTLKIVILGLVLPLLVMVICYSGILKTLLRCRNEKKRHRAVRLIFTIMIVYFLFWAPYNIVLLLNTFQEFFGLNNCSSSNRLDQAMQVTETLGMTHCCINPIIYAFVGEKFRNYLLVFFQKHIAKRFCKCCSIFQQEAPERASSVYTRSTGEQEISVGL

B1: murine MIP-1α (ligand, UniProt P10855 24-92, looked up)
chain: APYGADTPTACCFSYSRKIPRQFIVDYFETSSLCSQPGVIFLTKRNRQICADSKETWVQEYITDLELNA
modifications: also: radioiodinated (125I) when used as tracer
notes: also called mMIP-1α
B2: human D6 mutant K142R, E145A (receptor)
chain: MAATASPQPLATEDADSENSSFYYYDYLDEVAFMLCRKDAVVSFGKVFLPVFYSLIFVLGLSGNLLLLMVLLRYVPRRRMVEIYLLNLAISNLLFLVTLPFWGISVAWHWVFGSFLCKMVSTLYTINFYSGIFFISCMSLDRYLAIVHAQPYHRLRTRAKSLLLATIVWAVSLAVSIPDMVFVQTHENPKGVWNCHADFGGHGTIWKLFLRFQQNLLGFLLPLLAMIFFYSRIGCVLVRLRPAGQGRALKIAAALVVAFFVLWFPYNLTLFLHTLLDLQVFGNCEVSQHLDYALQVTESIAFLHCCFSPILYAFSSHRFRQYLKAFLAAVLGWHLAPGTAQASLSSCSESSILTAQEEMTGMNDLGERQSENYPNKEDVGNKSA
notes: Expressed in HEK 293 cells; also called K142R,E145A mutant
B3: human D6 triple mutant N92D, K142R, E145A (receptor)
chain: MAATASPQPLATEDADSENSSFYYYDYLDEVAFMLCRKDAVVSFGKVFLPVFYSLIFVLGLSGNLLLLMVLLRYVPRRRMVEIYLLNLAISDLLFLVTLPFWGISVAWHWVFGSFLCKMVSTLYTINFYSGIFFISCMSLDRYLAIVHAQPYHRLRTRAKSLLLATIVWAVSLAVSIPDMVFVQTHENPKGVWNCHADFGGHGTIWKLFLRFQQNLLGFLLPLLAMIFFYSRIGCVLVRLRPAGQGRALKIAAALVVAFFVLWFPYNLTLFLHTLLDLQVFGNCEVSQHLDYALQVTESIAFLHCCFSPILYAFSSHRFRQYLKAFLAAVLGWHLAPGTAQASLSSCSESSILTAQEEMTGMNDLGERQSENYPNKEDVGNKSA
notes: Expressed in HEK 293 cells

Assays:
[1] = target: T1, human D6; assay: displacement of 125I-murine MIP-1α by unlabeled chemokine on cells expressing human D6; LIGAND analysis
Description: (§1) Stably transfected CHO cells were plated at 10^5 cells/well in 24-well plates and incubated overnight at 37° C. After washing with warm PBS, the cells were incubated in 250 μl of binding buffer (special liquid medium plus 10% fetal calf serum, 4 mM glutamine, 0.2% sodium azide, 25 mM HEPES (pH 7.4)) containing variable concentrations of radioiodinated MIP-1 and cold competitor chemokine. Binding proceeded for 90 minutes at 22° C., then each well washed three times in ice-cold PBS and the cell monolayer was then solubilized by the addition of 0.5 ml of 1% SDS. Lysed cells were transferred to a counting vial and bound radioactivity counted for 1 minute in Beckman Gamma 5500B counter. Each data point was assayed in triplicate and each experiment performed at least twice of accuracy. Data was analyzed using Scahot and Scafit programs in LIGAND software (Munson et al. (1980) Anal. Biochem. 107:220-239).
The receptor binding assays were carried out as described above for the displacement analysis of murine D6 with cells being plated at 2×10⁵ cells/well in 24-well plates and incubated overnight at 37° C. prior to binding analysis.

[2] = target: B2; assay: cell-based or functional assay
[3] = target: T2, murine D6; assay: competition with 125I-murine MIP-1α on CHO cells stably expressing murine D6; LIGAND analysis
Description: as §1

[4] = target: B3; assay: cell-based or functional assay
[5] = target: T2, murine D6; assay: binding assays on CHO cells expressing murine D6
Description: as §1

[6] = target: T2, murine D6; assay: displacement of radiolabeled murine MIP-1α from murine D6 on transfected cells
Description: as §1

[7] = target: T3, human CCR5; assay: cell-based or functional assay
[8] = target: B1; assay: radioligand binding on transfected cells

Row | Binder | Kd [1] | Kd [3] | further results
1 | human MCP-4 (ligand) not shown | 5.9 nM |  | 
2 | human RANTES (ligand, UniProt P13501 24-91, looked up, also called hRANTES; HRANTES) SPYSSDTTPCCFAYIARPLPRAHIKEYFYTSGKCSNPAVVFVTRKNRQVCANPEKKWVREYINSLEMS | 3.6 nM | 2 nM | [Ca++] [2]: 19.3 nmol/L
3 | human MCP-3 (ligand, also called hMCP-3) not shown | 1.2 nM | 5 nM | 
4 | murine JE (ligand, They are treated here as one protein (JE is the murine MCP-1); also called murine MCP-1) not shown | 613 nM | 1.5 nM | 
5 | murine MIP-1β (ligand, UniProt P14097 24-92, looked up, also called mMIP-1β; murine M1β) APMGSDPPTSCCFSYTSRQLHRSFVMDYYETSSLCSKPAVVFLTKRGRQICANPSEPWVTEYMSDLELN | 0.755 nM | 0.77 nM | 
6 | B1 | 0.92 nM |  | [Ca++] [2]: 28.2 nmol/L; [Ca++] [4]: 11.3 nmol/L; binding result [5]: binds
7 | human MCP-2 (ligand, UniProt P80075 24-99, looked up, also called hMCP-2) QPDSVSIPITCCFNVINRKIPIQRLESYTRITNIQCPKEAVIFKTKRGKEVCADPKERWVRDSMKHLDQIFQNLKP | 768 nM |  | [Ca++] [2]: 22.9 nmol/L; [Ca++] [4]: 13.7 nmol/L
8 | KC (ligand, UniProt P12850 25-96, looked up) APIANELRCQCLQTMAGIHLKNIQSLKVLPSGPHCTQTEVIATLKNGREACLDPEAPLVQKIVQKMLKGVPK |  |  | binding result [6]: no binding
9 | human HCC1 (ligand, UniProt Q16627 20-93, looked up) TKTESSSRGPYHPSECCFTYTTYKIPRQRIMDYYETNSQCSKPGIVFITKRGHSVCTNPSDKWVQDYIKDMKEN | 27.2 nM |  | 
10 | human MIP-1β (ligand, UniProt P13236 24-92, looked up) APMGSDPPTACCFSYTARKLPRNFVVDYYETSSLCSQPAVVFQTKRSKQVCADPSESWVQEYVYDLELN | 1.7 nM | 0.26 nM | 
11 | human Eotaxin (ligand) not shown | 46 nM |  | 
12 | murine Eotaxin (ligand, UniProt P48298 24-97, looked up) HPGSIPTSCCFIMTSKKIPNTLLKSYKRITNNRCTLKAIVFKTRLGKEICADPKKKWVQDATKHLDQKLQTPKP | 30 nM |  | 
13 | human MIP-1α (ligand, UniProt P10147 24-92, looked up, also called hMIP-1α) SLAADTPTACCFSYTSRQIPQNFIADYFETSSQCSKPGVIFLTKRSRQVCADPSEEWVQKYVSDLELSA | 64 nM |  | [Ca++] [7]: 412 nmol/L
14 | murine MCP-5 (ligand, UniProt Q62401 23-104, looked up, also called mMCP-5) GPDAVSTPVTCCYNVVKQKIHVRKLKSYRRITSSQCPREAVIFRTILDKEICADPKEKWVKNSINHLDKTSQTFILEPSCLG | 6.3 nM |  | 
15 | B2 |  |  | binding result [8]: binds
16 | B3 |  |  | binding result [8]: binds
